As a reminder, the IC50 is the concentration at which inhibition is half-maximal. What is called Kd is the concentration at which binding is half-saturated. In general, koff refers to the rate constant with which the complex falls apart. By kon is commonly meant the second-order rate constant of association. The term EC50 denotes the concentration at which the effect is half-maximal. What is called EC50 (read off the curve) is the concentration needed to bring the measured effect to its halfway point.

Numbering of substitutions follows the chain as printed. Where “and” joins values, the source holds several entries; their conditions need not be identical. Equal values may be shown once. Read-outs that look alike come from different tables or passages of the source.

For assay [1], the target named is T1, recombinant human PD-1 Fc chimera (human, UniProt Q15116 25-167).
T1 construct: Bought protein; also called human PD-1-huFc; huPD-1-Fc; not shown: human Fc
T1 sequence (Q15116 25-167 limits assumed, change not shown): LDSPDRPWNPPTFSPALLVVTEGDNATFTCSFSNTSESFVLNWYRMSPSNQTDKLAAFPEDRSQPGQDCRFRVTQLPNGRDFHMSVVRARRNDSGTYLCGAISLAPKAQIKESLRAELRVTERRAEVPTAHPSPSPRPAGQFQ
The experiment in a line: HTRF inhibition; biotinylated PD-L2-Fc vs Eu-cryptate PD-1-Fc. In general terms: In TR-FRET formats the signal depends on donor and acceptor labels being close together.

For assay [2], the target named is T1, recombinant human PD-1 Fc chimera. The experiment in a line: SPR Biacore T200, PD-1-huFc amine-coupled, single cycle kinetics. The method, then: Binding kinetics of certain VH single domain antibodies binding to human PD-1-huFc were measured by surface plasmon resonance (SPR) technology using Biacore T200 instrument (GE Healthcare). Recombinant human PD-1-huFc was immobilized by standard amine coupling to CM5 sensorschip (GE Healthcare) using in range of 0.1-0.01 mg/ml solution of antigen in 10 mM sodium acetate at pH 5.5. For the reference flow cell, a blank immobilisation was carried out. Single cycle kinetics assays were used to study the interaction, a five point, three-fold dilution series of each Humabody® was made with a top concentration of 30 nM. The binding kinetics were followed by flowing the Humabody® over the chip surface in HBS EP+ buffer at a flow rate of 30 μl/min. The contact time for each of the association steps was 180 seconds and the dissociation step was varied between 1200-3600 seconds. The data was fitted to a 1:1 binding model after double reference subtraction using the Biacore T200 Evaluation software.
In general terms: In SPR one partner is held on a chip, and binding of the other changes the refractive index at the surface.

Assay [3] deals with T2, mouse PD-1 protein (mouse, UniProt Q02242 25-167).
T2 construct: Detected with anti human-Fc cryptate, so probably Fc tagged; also called mouse PD-1 (R&D Systems cat no. 1021-PD)
T2 sequence (looked up): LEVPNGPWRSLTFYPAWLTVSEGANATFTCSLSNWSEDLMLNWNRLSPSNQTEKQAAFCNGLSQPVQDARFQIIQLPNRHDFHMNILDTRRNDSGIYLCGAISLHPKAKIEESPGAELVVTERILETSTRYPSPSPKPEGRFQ
The experiment in a line: HTRF binding, 2 nM mouse PD-1. The method, then:
(§1) e) Species Cross Reactivity Testing Purified […] were tested for their ability to bind to human PD-1 (R&D Systems cat no. 1086-PD), cynomolgus PD-1 (Acro Biosystems cat no. PD-1-05254) and mouse PD-1 (R&D Systems cat no. 1021-PD) in an HTRF Binding assay format. All reagents and serially diluted VH were prepared in assay buffer containing PBS, 0.1% BSA and 0.4M Potassium Fluoride. Samples or assay buffer (non-specific binding) were incubated with 2 nM human/cynomolgus or mouse PD-1, 1 nM Anti human-Fc Cryptate PAb (Cisbio cat. no. 61HFCKLB) and 30 nM anti His-D2 (CisBio cat no 61HISDLA) in black 384-shallow well assay plates for a minimum of 3 hours at room temperature. Time-resolved fluorescent emission at 620 nm and 665 nm was measured following excitation at 337 nm on the BMG PHERAstar plate reader. The HTRF ratio were calculated ((665 nm emission/620 nm emission)*10000) and the data corrected for (non-specific binding) to give the specific binding signal.

In assay [4] the target is T1, recombinant human PD-1 Fc chimera. The experiment in a line: HTRF inhibition; strep-tagged PD-L1 vs PD-1-Fc. The method, then:
All samples and reagents were prepared in HTRF assay buffer containing PBS, 0.1% (w/v) BSA and 0.4M Potassium Fluoride. […] Total binding controls containing periplasmic extract sample buffer and non-specific binding controls containing excess untagged competitor were set up on each plate for data normalisation. Time-resolved fluorescent emission at 620 nm and 665 nm was measured following excitation at 337 nm on the BMG PHERAstar plate reader. Data was expressed as a % of the total binding control (% control) after subtraction of the background signal determined from the non-specific binding control wells.

For assay [5] the target is unchanged. The experiment in a line: HTRF binding, 2 nM PD-1, anti-Fc cryptate and anti-His-D2. The method, then:
as §1

In assay [6] the target is T3, cynomolgus PD-1 recombinant protein (cynomolgus, UniProt B0LAJ3 25-170).
T3 construct: Detected with anti human-Fc cryptate, so probably Fc tagged; also called cyno PD-1; cynomolgus PD-1 (Acro Biosystems cat no. PD-1-05254); not shown: The vendor's carrier tag; It is probably a human Fc, since detection used anti human-Fc cryptate
T3 sequence (B0LAJ3 entry or part of it limits assumed): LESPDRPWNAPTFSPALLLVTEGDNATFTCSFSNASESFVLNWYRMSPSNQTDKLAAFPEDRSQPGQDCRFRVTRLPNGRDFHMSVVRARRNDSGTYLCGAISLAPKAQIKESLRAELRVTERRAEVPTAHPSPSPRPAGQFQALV
Described as above. The method, then:
as §1

Assay [7] addresses T4, human PD-1 expressed on cells (CHO human PD-1 cells) (human, UniProt Q15116 21-288).
T4 construct: also called CHO TREX human PD-1 cell line; CHO PD-1
The experiment in a line: FMAT inhibition assay on CHO human PD-1 cells; blocked ligand: human Fc tagged human PD-L1. The method, then: (§2) All reagents and serially diluted VH were prepared in FMAT assay buffer. […] Plates were incubated for 2 hours at room temperature then fluorescence measured in the FL2 (502 nm-537 nm) and FL5 (677-800 nm) channels on the Mirrorball plate reader (TTP) following excitation at 488 nm and 640 nm. Data was expressed as a % of the total binding control (i.e. % control) after subtraction of the background signal determined from the non-specific binding control wells.

In assay [8] the target is T4, human PD-1 expressed on cells (CHO …). The experiment in a line: cell-based or functional assay.
Assay [9] has the same target. The experiment in a line: FMAT inhibition assay on CHO human PD-1 cells; blocked ligand: human Fc tagged human PD-L1; a separate run from Figure 4 a). The method, then: as §2
The target in assay [10] is human PD-1 expressed on cells (CHO human PD-1 cells) (human) (UniProt Q15116). The experiment in a line: cell-based or functional assay.
Chain of human PD-1 expressed on cells (CHO human PD-1 cells) (human) (Q15116 21-288): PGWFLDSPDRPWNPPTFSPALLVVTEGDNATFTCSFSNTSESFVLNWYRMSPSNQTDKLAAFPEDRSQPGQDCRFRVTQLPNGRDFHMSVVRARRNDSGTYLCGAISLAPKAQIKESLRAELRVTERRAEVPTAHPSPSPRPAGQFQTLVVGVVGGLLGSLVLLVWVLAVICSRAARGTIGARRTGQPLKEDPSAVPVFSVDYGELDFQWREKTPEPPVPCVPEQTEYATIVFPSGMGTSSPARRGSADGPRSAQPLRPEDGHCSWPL
The target in assay [11] is T4, human PD-1 expressed on cells (CHO …). The experiment in a line: FMAT 1.57 epitope competition assay on CHO human PD-1 cells; competitor: 1.57-Strep tagged protein; 7 days in mouse serum. The method, then: (§3) For the epitope competition assay reagents were prepared in FMAT assay buffer. […] Plates were incubated for a minimum of 1.5 hours at room temperature then fluorescence measured in the FL2 (502 nm-537 nm) and FL5 (677-800 nm) channels on the Mirrorball plate reader (TTP) following excitation at 488 nm and 640 nm. Data was expressed as a % of the total binding control (i.e. % control) after subtraction of the background signal determined from the non-specific binding control wells.
(§4) Serum stability of VH and multivalent VH constructs was assessed by measurement of their activity following incubation for 0, 1, 4 or 7 days in mouse serum (Sigma M5905).

For assay [12] the target is unchanged. The experiment in a line: FMAT 1.57 epitope competition assay on CHO human PD-1 cells; competitor: 1.57-Strep tagged protein; 0 days in mouse serum. The method, then:
as §3, §4

In assay [13] the target is human PD-1 expressed on cells (CHO human PD-1 cells) (human) (UniProt Q15116). The description is as above.
The target of assay [14] is T4, human PD-1 expressed on cells (CHO …). The experiment in a line: FMAT 1.57 epitope competition assay on CHO human PD-1 cells; competitor: 1.57-Strep tagged protein; 4 days in mouse serum. The method, then: as §3, §4
Assay [15] concerns the target human PD-1 on primary human CD4+ T cells (human, UniProt Q15116 21-288). The experiment in a line: flow cytometry on PHA-stimulated human CD4+ T cells (live cell gate). The method, then: Binding of monovalent single domain antibodies and multivalent binding agents to T cells was measured using flow cytometry. […] T-cells were stimulated with 2.5 μg/ml PHA for 2-4 days in RPMI media supplemented with 10% FBS, 2 mM Glutamine, 1× Pen/Strep. Cells were transferred into 96 well plates (75000 per well), blocked for 10 mins with PBS/1% BSA, then incubated with serially diluted VH in staining buffer (PBS/1% BSA) for 1 hour at 4° C. Cells were washed with staining buffer by centrifugation then incubated with 10 μg/ml biotinylated Anti His antibody for 40 mins at 4° C. Cells were washed again then stained with Streptavidin Alexa Fluor-488 (10 μg/ml) and 1:5000 diluted Live Dead near IR stain (Molecular Probes cat no. L10119) for 30 mins at 4° C. After further washing cells were fixed and fluorescence measured by flow cytometry.
In general terms: A flow cytometer gives signals particle by particle.

In assay [16] the target is human PD-1 expressed on cells (CHO human PD-1 cells) (human) (UniProt Q15116). The experiment in a line: FMAT inhibition assay on CHO human PD-1 cells; blocked ligand: human Fc tagged human PD-L1.
The target of assay [17] is T1, recombinant human PD-1 Fc chimera. The experiment in a line: SPR Biacore T200, PD-1-Fc captured on protein G, single cycle kinetics. The method, then:
Single cycle kinetics assays were used to study the interaction between human Fc tagged human PD-1 with Humabody® on a Biacore T200 instrument (GE Healthcare). Protein G was amine coupled to two flow cells of a CM-5 chip. Human Fc tagged recombinant human PD-1 was captured onto one of the flow cells. The other was used as the reference flow cell. A five point, three-fold dilution series of each Humabody® was made with a top concentration within the range of 50 to 150 nM. The binding kinetics were followed by flowing the Humabody® over the chip surface in HBS EP+ buffer at a flow rate of 30 μl/min. The contact time for each of the association steps was 180 seconds and the dissociation step was 3600 seconds. The data was fitted to a 1:1 binding model after double reference subtraction using the Biacore T200 Evaluation software.

The target of assay [18] is human PD-1 expressed on cells (CHO human PD-1 cells) (human) (UniProt Q15116). The experiment in a line: FMAT 1.57 epitope competition assay on CHO human PD-1 cells; competitor: 1.57-Strep tagged protein; 1 day in mouse serum.
Assay [19] shares this target. The experiment in a line: FMAT 1.57 epitope competition assay on CHO human PD-1 cells; competitor: 1.57-Strep tagged protein; 7 days in mouse serum.
For assay [20], the target named is T4, human PD-1 expressed on cells (CHO …). The experiment in a line: FMAT 1.57 epitope competition assay on CHO human PD-1 cells; competitor: 1.57-Strep tagged protein; 1 day in mouse serum. The method, then: as §3, §4
For assay [21], the target named is T2, mouse PD-1 protein. The experiment in a line: HTRF binding.
The target of assay [22] is T4, human PD-1 expressed on cells (CHO …). The experiment in a line: cell-based or functional assay. This is another data set of the same source.
The target is the same in assay [23]. The experiment in a line: cell-based or functional assay. This is another data set of the same source.
In assay [24] the target is T5, Strep tagged recombinant human PD-1 (human, UniProt Q15116 25-170, limits assumed).
T5 construct: the whole entry is named; also called strep tagged human PD-1; not shown: Strep tag
T5 sequence (Q15116 25-170 limits assumed): as the sequence (B0LAJ3 entry or part of it limits assumed) above, with E2D, A10P, L19V, A35T, R75Q, A144T counted along it
The experiment in a line: SPR Biacore T200, strep-tagged PD-1 amine-coupled, single cycle kinetics.

T4 sequence (Q15116 21-288): as the sequence (Q15116 21-288) above
Chain of human PD-1 on primary human CD4+ T cells (Q15116 21-288): as above

B1: Humabody® 1.1 (VHH)
VHH: QVQLVESGGGLVKPGGSLRLSCAASGFTFSDYTMTWMRQAPGKGLEWVSYISTGGTIKYYTDSVKGRFTISRDNAKNSLYLQMNSLRADDTAVYYCAREAPLRLGESPHDAFDIWGQGTMVTVSS
notes: human VH single domain antibody; also called VH single domain antibody 1.1; clone 1.1
As for B1, the IC50 in [1] turned out to be 4.9 nM. In assay [2], the Kd came to 0.676 nM, the koff turned out to be 7.35e-05 s⁻¹ and the kon came to 109000 M⁻¹ s⁻¹. Further, the binding result in the assay with mouse PD-1 protein [3] was “no binding”. The IC50 in assay [4] worked out at 1.27 nM. Also, the EC50 in [5] came out at 4 nM. Further, the EC50 in assay [6] worked out at 6.3 nM. The “IC50 (read off the curve)” value in [7] was ~20 nM.

B2: Humabody® 1.57 (VHH)
VHH: B1 VHH with Y32N, T33S, T53S, T56G, I57V, K58I, Y59F, T61A, W115S
notes: human VH single domain antibody
Turning to B2, in assay [8], the “Reporter Assay EC50” value was found to be 8.6 nM. The “IC50 (read off the curve)” value in [9] is ~4 nM; in assay [11], ~2 nM; in assay [12] it was ~0.4 nM; in assay [13] it was 2 nM; in [14], ~1 nM; in assay [16], 6 nM. For the same molecule, the IC50 (read off the curve) in assay [18] was 1 nM; in assay [19], 3 nM; in assay [20] it was ~0.7 nM. The same molecule returned an EC50 (M), human PD-1 reporter gene assay in assay [10] of 1e-08 M. In assay [10], this molecule yielded an EC50 (M), reporter assay of 1e-08 M. In addition, the binding result in the assay with mouse PD-1 protein [3] is on record as “no binding”. The concentration giving a half-maximal response (EC50 (read off the curve)) was 1 nM in [15] and ~0.2 nM in assay [15] (record 2). In addition, the EC50 in assay [5] came to 0.59 nM; in assay [6] it was 0.75 nM. In addition, the Kd in [17] was 0.0586 nM and 0.0533 nM. Also, the koff in assay [17] is 1.99e-05 s⁻¹ and 2.32e-05 s⁻¹. Also, in [17], the kon was 340000 M⁻¹ s⁻¹ and 435000 M⁻¹ s⁻¹.

B3: 1.57-4GS-1.57 (other)
chain: QVQLVESGGGLVKPGGSLRLSCAASGFTFSDNSMTWMRQAPGKGLEWVSYISSGGGVIFYADSVKGRFTISRDNAKNSLYLQMNSLRADDTAVYYCAREAPLRLGESPHDAFDISGQGTMVTVSSGGGGSGGGGSGGGGSGGGGSQVQLVESGGGLVKPGGSLRLSCAASGFTFSDNSMTWMRQAPGKGLEWVSYISSGGGVIFYADSVKGRFTISRDNAKNSLYLQMNSLRADDTAVYYCAREAPLRLGESPHDAFDISGQGTMVTVSS
notes: bivalent construct of two VH domains in one chain
As for B3, the binding result in the assay with mouse PD-1 protein [21] is given as “no binding”. Also, the “EC50 (M), reporter assay” value in [22] came to 1e-09 M. In addition, in [23], the “EC50 (M), human PD-1 reporter gene assay” value is 1e-09 M. Also, in [24], the dissociation constant Kd was determined as 0.0173 nM, the koff came to 1.54e-05 s⁻¹ and the kon is 888000 M⁻¹ s⁻¹.

These data come from US20200239573A1 (CRESCENDO BIOLOGICS, published 2020).
